Six molecules from patent US20250002588A1 (DIAGONAL THERAPEUTICS, published 2025) can be followed below.

This experiment concerns the target ALK-1/BMPR-2 receptor pair of the PathHunter U2Os dimerization cells (DiscoverX 93-0962C3) (UniProt P37023 22-503; Q13873 27-1038). Description: cell-based or functional assay.

Numbering of substitutions follows the chain as printed.

Chain of ALK-1/BMPR-2 receptor pair of the PathHunter U2Os dimerization cells (DiscoverX 93-0962C3) (P37023 22-503, chain 1 of 2): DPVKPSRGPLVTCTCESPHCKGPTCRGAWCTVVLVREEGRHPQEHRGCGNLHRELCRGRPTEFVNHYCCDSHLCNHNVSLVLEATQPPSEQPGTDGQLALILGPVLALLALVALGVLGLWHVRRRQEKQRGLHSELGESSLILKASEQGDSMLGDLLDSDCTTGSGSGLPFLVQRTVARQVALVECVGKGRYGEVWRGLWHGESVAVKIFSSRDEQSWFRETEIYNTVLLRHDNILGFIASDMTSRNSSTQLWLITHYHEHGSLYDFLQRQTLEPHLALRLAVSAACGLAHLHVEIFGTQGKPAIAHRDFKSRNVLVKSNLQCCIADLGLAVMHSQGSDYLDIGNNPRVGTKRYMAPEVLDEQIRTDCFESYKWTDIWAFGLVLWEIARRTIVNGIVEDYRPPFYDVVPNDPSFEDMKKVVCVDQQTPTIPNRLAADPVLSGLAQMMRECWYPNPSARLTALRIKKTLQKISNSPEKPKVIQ
Chain of ALK-1/BMPR-2 receptor pair of the PathHunter U2Os dimerization cells (DiscoverX 93-0962C3) (Q13873 27-1038, chain 2 of 2): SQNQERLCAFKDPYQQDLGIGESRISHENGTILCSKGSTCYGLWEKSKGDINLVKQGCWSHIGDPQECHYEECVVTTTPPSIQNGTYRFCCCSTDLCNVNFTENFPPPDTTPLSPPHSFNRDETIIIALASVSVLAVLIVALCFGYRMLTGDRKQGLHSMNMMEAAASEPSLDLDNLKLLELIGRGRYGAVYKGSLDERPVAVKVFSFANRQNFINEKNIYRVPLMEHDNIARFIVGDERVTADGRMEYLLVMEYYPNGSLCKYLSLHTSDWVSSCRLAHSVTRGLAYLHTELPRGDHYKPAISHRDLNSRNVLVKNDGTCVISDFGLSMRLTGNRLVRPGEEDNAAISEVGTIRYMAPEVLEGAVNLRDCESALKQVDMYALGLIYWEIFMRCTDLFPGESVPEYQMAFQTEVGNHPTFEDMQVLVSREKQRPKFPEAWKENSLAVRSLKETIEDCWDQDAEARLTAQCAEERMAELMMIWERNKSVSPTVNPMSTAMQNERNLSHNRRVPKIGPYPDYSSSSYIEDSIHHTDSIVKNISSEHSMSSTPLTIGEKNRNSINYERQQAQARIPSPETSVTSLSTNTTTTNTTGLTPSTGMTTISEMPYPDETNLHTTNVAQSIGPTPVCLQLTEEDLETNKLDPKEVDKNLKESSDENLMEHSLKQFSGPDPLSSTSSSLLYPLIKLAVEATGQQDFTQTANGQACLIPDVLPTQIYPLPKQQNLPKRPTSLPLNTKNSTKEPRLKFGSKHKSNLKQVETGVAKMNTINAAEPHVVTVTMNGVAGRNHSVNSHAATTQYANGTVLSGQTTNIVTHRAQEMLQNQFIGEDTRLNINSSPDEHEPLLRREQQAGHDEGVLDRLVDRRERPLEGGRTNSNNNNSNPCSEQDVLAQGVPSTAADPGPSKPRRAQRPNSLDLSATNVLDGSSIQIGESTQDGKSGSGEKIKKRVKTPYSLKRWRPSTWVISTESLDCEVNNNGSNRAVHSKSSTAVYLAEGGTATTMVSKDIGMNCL

B1: DGL269 (bispecific antibody)
chain 1: EVQLLESGGGLVQPGGSLRLSCAASGFTFSNAWMNWVRQAPGKGLEWVSSISSSSSYIYYADSVKGRFTISRDNSKNTLYLQMNSLRAEDTAVYYCARAVAAGGMFWGLDQWGQGTLVTVTSSGGGGSGGGGSGGGGSQSVLTQPPSASGTPGQRVTISCSGSRSNIGSNSVHWYQQLPGTAPKLLIYGNSNRPSGVPDRFSGSKSGTSASLAISGLRSEDEADYYCQSYDSSLNDHVVFGGGTKLTVLGGGGSGGGGSGGGGSGVECPPCPAPPVAGPSVFLFPPKPKDTLMISRTPEVTCVVVDVSHEDPEVQFNWYVDGVEVHNAKTKPREEQFNSTFRVVSVLTVVHQDWLNGKEYKCKVSNKGLPAPIEKTISKTKGQPREPQVYTLPPCREEMTKNQVSLWCLVKGFYPSDIAVEWESNGQPENNYKTTPPMLDSDGSFFLYSKLTVDKSRWQQGNVFSCSVMHEALHNHYTQKSLSLSPG
chain 2: B1 chain 1 with Y390C, C395S, W407S, L409A, Y448V
Turning to B1, the “% Emax BMP9” value stood at 0% and the “Emax (RLU)” value was -8300 RLU.

B2: DGL268 (bispecific antibody)
chain 1: EVQLLESGGGLVQPGGSLRLSCAASGFTFSIYAMSWVRQAPGKGLEWVSAISGSGGSTYYADSVKGRFTISRDNSKNTLYLQMNSLRAEDTAVYYCARDFDYWGQGTLVTVTSSGGGGSGGGGSGGGGSQSVLTQPPSASGTPGQRVTISCSGSSSNIGSNYVYWYQQLPGTAPKLLIYGNINRPSGVPDRFSGSKSGTSASLAISGLRSEDEADYYCAAWDDSLNGRVFGGGTKLTVLGGGGSGGGGSGGGGSGVECPPCPAPPVAGPSVFLFPPKPKDTLMISRTPEVTCVVVDVSHEDPEVQFNWYVDGVEVHNAKTKPREEQFNSTFRVVSVLTVVHQDWLNGKEYKCKVSNKGLPAPIEKTISKTKGQPREPQVYTLPPCREEMTKNQVSLWCLVKGFYPSDIAVEWESNGQPENNYKTTPPMLDSDGSFFLYSKLTVDKSRWQQGNVFSCSVMHEALHNHYTQKSLSLSPG
chain 2: B2 chain 1 with Y380C, C385S, W397S, L399A, Y438V
As for B2, the “% Emax BMP9” value was determined as 1%, the 50% effective concentration (EC50) was 0.1 nM and the “Emax (RLU)” value was found to be 35200 RLU.

B3: DGL267 (bispecific antibody)
chain 1: EVQLLESGGGLVQPGGSLRLSCAASGFTFSSYAMSWVRQAPGKGLEWVANINQDGSEKNYVDSMRGRFTISRDNSKNTLYLQMNSLRAEDTAVYYCAREFDYWGQGTLVTVTSSGGGGSGGGGSGGGGSQSVLAQPPSASGTPGQRVTISCSGSSSNIGSNYVYWYQQLPGTAPKLLIYGNNKRPSGVPDRFSGSKSGTSASLAISGLRSEDEADYYCAAWDDSLNGRVFGGGTKLTVLGGGGSGGGGSGGGGSGVECPPCPAPPVAGPSVFLFPPKPKDTLMISRTPEVTCVVVDVSHEDPEVQFNWYVDGVEVHNAKTKPREEQFNSTFRVVSVLTVVHQDWLNGKEYKCKVSNKGLPAPIEKTISKTKGQPREPQVYTLPPCREEMTKNQVSLWCLVKGFYPSDIAVEWESNGQPENNYKTTPPMLDSDGSFFLYSKLTVDKSRWQQGNVFSCSVMHEALHNHYTQKSLSLSPG
chain 2: EVQLLESGGGLVQPGGSLRLSCAASGFTFSDYYMTWIRQAPGKGLEWVSSISGGSTYYADSRKGRFTISRDNSENTLYLQMNSLRAEDTAVYYCARDFGVAGWFGQYGMDVWGQGTLVTVSSGGGGSGGGGSGGGGSQSVLTQPPSASGTPGQRVTISCTGSSSNIGAGYDVHWYQQLPGTAPKLLIYRSNQRPSGVPDRFSGSKSGTSASLAISGLRSEDEADYYCSSYAGNYNLVFGGGTKLTVLGGGGSGGGGSGGGGSGVECPPCPAPPVAGPSVFLFPPKPKDTLMISRTPEVTCVVVDVSHEDPEVQFNWYVDGVEVHNAKTKPREEQFNSTFRVVSVLTVVHQDWLNGKEYKCKVSNKGLPAPIEKTISKTKGQPREPQVCTLPPSREEMTKNQVSLSCAVKGFYPSDIAVEWESNGQPENNYKTTPPMLDSDGSFFLVSKLTVDKSRWQQGNVFSCSVMHEALHNHYTQKSLSLSPG
With B3, the “% Emax BMP9” value amounted to 46%, the “EC50” value came out at 0.9 nM and the “Emax (RLU)” value was 1.23e+06 RLU.

B4: DGL271 (bispecific antibody)
chain 1: B3 chain 2 with C388Y, S393C, S405W, A407L, V446Y
chain 2: B3 chain 2
Take B4: the “% Emax BMP9” value was 2% and the “Emax (RLU)” value was 55900 RLU.

B5: DGL270 (bispecific antibody)
chain 1: B3 chain 1
chain 2: B3 chain 1 with Y380C, C385S, W397S, L399A, Y438V
With B5, the “% Emax BMP9” value was found to be 0% and the “Emax (RLU)” value was 9200 RLU.

B6: DGL273 (bispecific antibody)
chain 1: EVQLLESGGGLVQPGGSLRLSCAASGFTFSIYAMSWVRQAPGKGLEWVSAISGSGGSTYYADSVKGRFTISRDNSKNTLYLQMNSLRAEDTAVYYCARDFDYWGQGTLVTVTSSGGGGSGGGGSGGGGSQSVLTQPPSASGTPGQRVTISCSGSSSNIGSNYVYWYQQLPGTAPKLLIYGNINRPSGVPDRFSGSKSGTSASLAISGLRSEDEADYYCAAWDDSLNGRVFGGGTKLTVLCPPCPAPEAAGAPSVFLFPPKPKDTLMISRTPEVTCVVVDVSHEDPEVKFNWYVDGVEVHNAKTKPREEQYNSTYRVVSVLTVLHQDWLNGKEYKCKVSNKALPAPIEKTISKAKGQPREPQVYTLPPCRDELTKNQVSLWCLVKGFYPSDIAVEWESNGQPENNYKTTPPVLDSDGSFFLYSKLTVDKSRWQQGNVFSCSVMHEALHNHYTQKSLSLSPGEPEA
chain 2: EVQLLESGGGLVQPGGSLRLSCAASGFTFSNAWMNWVRQAPGKGLEWVSSISSSSSYIYYADSVKGRFTISRDNSKNTLYLQMNSLRAEDTAVYYCARAVAAGGMFWGLDQWGQGTLVTVTSSGGGGSGGGGSGGGGSQSVLTQPPSASGTPGQRVTISCSGSRSNIGSNSVHWYQQLPGTAPKLLIYGNSNRPSGVPDRFSGSKSGTSASLAISGLRSEDEADYYCQSYDSSLNDHVVFGGGTKLTVLCPPCPAPEAAGAPSVFLFPPKPKDTLMISRTPEVTCVVVDVSHEDPEVKFNWYVDGVEVHNAKTKPREEQYNSTYRVVSVLTVLHQDWLNGKEYKCKVSNKALPAPIEKTISKAKGQPREPQVCTLPPSRDELTKNQVSLSCAVKGFYPSDIAVEWESNGQPENNYKTTPPVLDSDGSFFLVSKLTVDKSRWQQGNVFSCSVMHEALHNHYTQKSLSLSPGWSHPQFEK
Take B6: the “% Emax BMP9” value amounted to 46%, a half-maximal response (EC50) required 4.2 nM and the “Emax (RLU)” value came out at 1.22e+06 RLU.
